Source: patent publication US20240124586A1 (WUXI BIOLOGICS IRELAND, published 2024)

Columns and labels:
[1] = molecular target: cynomolgus CTLA-4 protein (cynomolgus, UniProt G7PL88 36-161, Probably biotinylated for streptavidin-PE detection, as described for the human CTLA-4 reagent in paragraph 775; the letters cannot carry this.); experiment: FACS competition: blocks cynomolgus CTLA-4 protein binding to human CD80 engineered cells
Description: Competitive FACS was used to test whether the antibodies could block human or cynomolgus CTLA-4 binding to hCD80 on cell surface. […] Then the mixtures of antibody and CTLA-4 were added to the cells and incubated for 1 hour at 4° C. The cells were washed two times with 200 μl FACS washing buffer (DPBS containing 1% BSA). Streptavidin PE (BD Pharmingen-554061) 1 to 600 diluted in FACS buffer was added to the cells and incubated at 4° C. for 1 hour. Additional washing steps were performed two times with 200 μL FACS washing buffer followed by centrifugation at 1500 rpm for 4 minutes at 4° C. Finally, the cells were resuspended in 100 μL FACS washing buffer and fluorescence values were measured by flow cytometry and analyzed by FlowJo.

FcγRI = molecular target: T1, FcγRI (UniProt P12314 16-288, limits assumed); experiment: SPR (Biacore), receptor captured on anti-his chip, 1:1 model
T1 construct: His-tagged by the capture method
Description: Antibody binding affinity to FcγRs was detected using Biacore T200 (or Biacore 8K). Each receptor was captured on an anti-his antibody immobilized CM5 sensor chip (GE). Antibodies at different concentrations were injected over the sensor chip at a flow rate of 30 uL/min for an association phase of 60 s, followed by 60 s dissociation. The chip was then regenerated by 10 mM glycine (pH 1.5) after each binding cycle.
The sensorgrams of blank surface and buffer channel were subtracted from the test sensorgrams. The experimental data was fitted by 1:1 model using Langmiur analysis (for FcγRI) or steady state model (for other receptors). A molecular weight of 150 KDa was used to calculate the molar concentration of antibodies.

cynomolgus CTLA-4 protein, sequence (G7PL88 entry or part of it limits assumed): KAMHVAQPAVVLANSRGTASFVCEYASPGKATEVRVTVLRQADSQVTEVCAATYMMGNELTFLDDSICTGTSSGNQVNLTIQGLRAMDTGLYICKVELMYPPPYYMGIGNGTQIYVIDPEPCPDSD
T1 sequence (P12314 16-288 limits assumed): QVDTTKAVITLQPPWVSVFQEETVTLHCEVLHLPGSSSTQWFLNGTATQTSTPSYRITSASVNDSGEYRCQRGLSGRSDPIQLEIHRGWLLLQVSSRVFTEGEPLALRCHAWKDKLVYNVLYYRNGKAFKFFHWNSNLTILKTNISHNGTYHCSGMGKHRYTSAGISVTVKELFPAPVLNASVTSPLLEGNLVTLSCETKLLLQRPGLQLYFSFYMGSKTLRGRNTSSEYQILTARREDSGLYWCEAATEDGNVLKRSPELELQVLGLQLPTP

B1: W3248-U6T5.G25-1.uIgG4.SP, bispecific anti-PD-1 x CTLA-4 (bispecific antibody)
heavy: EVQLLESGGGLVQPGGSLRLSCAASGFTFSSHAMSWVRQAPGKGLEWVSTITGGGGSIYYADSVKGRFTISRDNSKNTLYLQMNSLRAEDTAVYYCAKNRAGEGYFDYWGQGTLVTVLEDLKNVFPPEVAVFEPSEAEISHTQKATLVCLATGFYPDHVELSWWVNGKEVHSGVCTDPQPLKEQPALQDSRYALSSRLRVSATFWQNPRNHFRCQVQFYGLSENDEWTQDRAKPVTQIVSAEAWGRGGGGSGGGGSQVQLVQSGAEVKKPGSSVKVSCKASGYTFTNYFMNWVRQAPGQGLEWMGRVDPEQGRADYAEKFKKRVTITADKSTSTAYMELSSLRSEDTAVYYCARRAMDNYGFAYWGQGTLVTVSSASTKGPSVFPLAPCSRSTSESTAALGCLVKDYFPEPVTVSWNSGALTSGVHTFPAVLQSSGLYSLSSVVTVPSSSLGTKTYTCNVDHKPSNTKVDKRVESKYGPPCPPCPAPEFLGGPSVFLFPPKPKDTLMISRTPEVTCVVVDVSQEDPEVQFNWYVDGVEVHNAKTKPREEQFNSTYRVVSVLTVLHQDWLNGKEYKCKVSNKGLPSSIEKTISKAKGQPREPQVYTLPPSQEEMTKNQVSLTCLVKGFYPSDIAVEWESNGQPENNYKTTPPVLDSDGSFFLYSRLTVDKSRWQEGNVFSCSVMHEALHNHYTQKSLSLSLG
light 1: SYELTQPLSVSVALGQTARITCGGDNIGNKDVHWYQQKPGQAPVLVIYRDSNRPSGIPEGFSGSNSGNTATLTISRAQAGDEADYYCQVWDSIWVFGGGTKLTVLPDIQNPDPAVYQLRDSKSSDKSVCLFTDFDSQTQVSQSKDSDVYITDKCVLDMRSMDFKSNSAVAWSQKSDFACANAFQNSIIPEDTFFPSPESS
light 2: EIVLTQSPDFQSVTPKEKVTITCSANSALSYMYWYQQKPDQSPKLWVHGTSNLASGVPSRFSGSGSGTDFTLTINSLEAEDAATYYCHHWSNTQWTFGGGTKVEIKRTVAAPSVFIFPPSDEQLKSGTASVVCLLNNFYPREAKVQWKVDNALQSGNSQESVTEQDSKDSTYSLSSTLTLSKADYEKHKVYACEVTHQGLSSPVTKSFNRGEC
notes: IgG4 (S228P); also called WBP3248-U6T5.G25-1-uIgG4.SP; U6T5.G25.IgG4
- IC50 [1]: 2.14 nM

B2: W3438-T3U4.E17-1.uIgG4.SP, bispecific anti-CD3 x CD19 (bispecific antibody)
heavy 1: QVQLVQSGAEVKKPGSSVKVSCKASGFAFTDYYIHWVRQAPGQGLEWMGWISPGNVNTKYNENFKGRVTITADKSTSTAYMELSSLRSEDTAVYYCARDGYSLYYFDYWGQGTLVTVLEDLKNVFPPEVAVFEPSEAEISHTQKATLVCLATGFYPDHVELSWWVNGKEVHSGVCTDPQPLKEQPALQDSRYALSSRLRVSATFWQNPRNHFRCQVQFYGLSENDEWTQDRAKPVTQIVSAEAWGRYGPPCPPCPAPEFLGGPSVFLFPPKPKDTLMISRTPEVTCVVVDVSQEDPEVQFNWYVDGVEVHNAKTKPREEQFNSTYRVVSVLTVLHQDWLNGKEYKCKVSNKGLPSSIEKTISKAKGQPREPQVYTLPPCQEEMTKNQVSLWCLVKGFYPSDIAVEWESNGQPENNYKTTPPVLDSDGSFFLYSRLTVDKSRWQEGNVFSCSVMHEALHNHYTQKSLSLSLGK
light 1: DIVMTQSPDSLAVSLGERATINCKSSQSLLNSRTRKNYLAWYQQKPGQPPKLLIYWASTRQSGVPDRFSGSGSGTDFTLTISSLQAEDVAVYYCTQSHTLRTFGGGTKVEIKPDIQNPDPAVYQLRDSKSSDKSVCLFTDFDSQTQVSQSKDSDVYITDKCVLDMRSMDFKSNSAVAWSQKSDFACANAFQNSIIPEDTFFPSPESS
heavy 2: QMQLVQSGPEVKKPGTSVKVSCKASGYAFTSYNMYWVRQARGQRLEWIGYIDPYNGDTTYNQKFKGRVTITRDMSTSTAYMELSSLRSEDTAVYYCLTTAYAMDYWGQGTLVTVSSASTKGPSVFPLAPCSRSTSESTAALGCLVKDYFPEPVTVSWNSGALTSGVHTFPAVLQSSGLYSLSSVVTVPSSSLGTKTYTCNVDHKPSNTKVDKRVESKYGPPCPPCPAPEFLGGPSVFLFPPKPKDTLMISRTPEVTCVVVDVSQEDPEVQFNWYVDGVEVHNAKTKPREEQFNSTYRVVSVLTVLHQDWLNGKEYKCKVSNKGLPSSIEKTISKAKGQPREPQVCTLPPSQEEMTKNQVSLSCAVKGFYPSDIAVEWESNGQPENNYKTTPPVLDSDGSFFLVSRLTVDKSRWQEGNVFSCSVMHEALHNHYTQKSLSLSLGK
light 2: DIQLTQSPSFLSASVGDRVTITCSASSTVNYMHWYQQKPGKAPKLLIYSTSNLASGVPSRFSGSGSGTEFTLTISSLQPEDFATYYCHQWSSYPYTFGQGTKLEIKRTVAAPSVFIFPPSDEQLKSGTASVVCLLNNFYPREAKVQWKVDNALQSGNSQESVTEQDSKDSTYSLSSTLTLSKADYEKHKVYACEVTHQGLSSPVTKSFNRGEC
notes: also called E17-Design_2-QQQQ (IgG4); E17-IgG4; copies: 1 + 1 + 1 + 1
- Kd (FcγRI): 9.79 nM
